For the assay, the target named is T1, 人CD 19 (细胞表面上表达: Raji、Daudi、ARH-77细胞, 人CD 19转染的CHO细胞) (human, UniProt P15391 20-556).
T1 construct: CD19 on the surface of B cell tumour lines (endogenous) or of CHO cells transfected with full-length cDNA of the transmembrane form; it is not tied word for word to the cells used; also called CHO-CD 19; CD 19-CHO
T1 sequence: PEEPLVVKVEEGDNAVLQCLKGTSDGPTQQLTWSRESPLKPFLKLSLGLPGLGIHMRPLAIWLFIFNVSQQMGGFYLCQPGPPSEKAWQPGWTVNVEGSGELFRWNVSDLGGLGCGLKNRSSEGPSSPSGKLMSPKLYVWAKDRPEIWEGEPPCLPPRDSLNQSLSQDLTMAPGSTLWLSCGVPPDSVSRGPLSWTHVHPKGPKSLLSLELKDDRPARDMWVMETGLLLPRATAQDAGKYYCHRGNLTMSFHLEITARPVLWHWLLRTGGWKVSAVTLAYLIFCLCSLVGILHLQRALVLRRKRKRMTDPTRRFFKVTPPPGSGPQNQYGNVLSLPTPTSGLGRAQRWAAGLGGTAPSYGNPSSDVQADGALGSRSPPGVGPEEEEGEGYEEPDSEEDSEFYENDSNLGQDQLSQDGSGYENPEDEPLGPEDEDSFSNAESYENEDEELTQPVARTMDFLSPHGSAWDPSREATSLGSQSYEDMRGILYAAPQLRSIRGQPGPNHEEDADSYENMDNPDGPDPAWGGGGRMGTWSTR
Put plainly: Scatchard analysis, 125I-labelled antibody on Raji cells.

We go through two molecules from patent publication CN101233156A (MEDAREX INC, dated 2008).

B1: 抗CD 19人单克隆抗体47G4 (antibody, V domains shown)
VH: QVQLVQSGAEVKKPGSSVKVSCKDSGGTFSSYAISWVRQAPGQGLEWMGGIIPIFGTTNYAQQFQGRVTITADESTSTAYMELSSLRSEDTAVYYCAREAVAADWLDPWGQGTLVTVSS
VL: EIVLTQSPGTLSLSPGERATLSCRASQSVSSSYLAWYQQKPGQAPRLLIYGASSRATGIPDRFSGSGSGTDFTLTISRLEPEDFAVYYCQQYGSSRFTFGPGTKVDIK
notes: 125I-labelled in the Scatchard assay; also called HuMAb 47G4; CD 19 HuMab 47G4
Turning to B1, the Kd – broadly, the free concentration of one partner at which half of the binding sites on the other are occupied at equilibrium, for simple one-to-one binding – was about 12 nM.

B2: 抗CD 19人单克隆抗体21D4 (antibody, V domains shown)
VH: EVQLVQSGAEVKKPGESLKISCKGSGYSFSSSWIGWVRQMPGKGLEWMGIIYPDDSDTRYSPSFQGQVTISADKSIRTAYLQWSSLKASDTAMYYCARHVTMIWGVIIDFWGQGTLVTVSS
VL: AIQLTQSPSSLSASVGDRVTITCRASQGISSALAWYQQKPGKAPKLLIYDASSLESGVPSRFSGSGSGTDFTLTISSLQPEDFATYYCQQFNSYPYTFGQGTKLEIK
notes: Human monoclonal antibody from KM mouse hybridoma; also called HuMAb 21D4; HuMab 21D4
In turn, B2 registered a Kd of about 2.14 nM.
